# Measurements reported in patent US7166733B2, “O,O'-Amidomalonate and N,O-Amidomalonate platinum complexes” (priority 2000, dated 2007).
# What was measured:
# Bl6FI0 melanoma cells = experiment: Clonogenic (colony-formation) assay; assay type: cell-based, murine; conditions: 7 days incubation
# Protocol: The relative cytotoxic activity of various O,O′—Pt chelate analogs were evaluated in vitro by means of a clonogenic (colony-formation) assay employing a tissue culture of Bl6FI0 melanoma cells. In this way, the activity of the analogs was compared to that of cisplatin and carboplatin. The effect of conversion to an N,O—Pt chelate was also evaluated. Briefly, cells were seeded into culture dishes and allowed to attach. The cultures were incubated for 7 days in medium containing the desired concentration of the test agent. After fixation, the number of cell clusters containing >50 cells was scored as a colony. Each concentration of test agent was assayed in triplicate. The mean number of colonies in each of the triplicate dishes was divided by the mean number of colonies in the control (no test agent) dishes to obtain a percent survival value for each concentration of test agent. The IC50 (concentration resulting in 50% inhibition of growth) of each of the agents was determined by linear regression analysis using the data values directly above and below the 50% survival point.
# [1] = Maximum tolerated dose on a qd×5 schedule in the B16 melanoma model; assay type: in vivo; conditions: IP, C57BL/6 mice
# Protocol: (§1) A study was conducted to compare the antitumor activity of poly(HPMA)-GFLG-Ama=Pt=DACH with that of carboplatin in the B16 melanoma model when each agent was administered as an IP injection daily for 5 days (qd×5). The poly(HPMA)-GFLG-Ama=Pt=DACH material was also given at days 15, 16, and 17. Both compounds were given at their respective maximum tolerated (equitoxic) doses on this regimen.
# (§2) Female C57BL/6 mice weighing 18–20 g were implanted s.c. with 10^6 B16F10 tumor cells harvested from tissue culture. The size of the resulting tumor was followed individually throughout the study. Tumor mass (in mg) was calculated as (W^2×L)/2, where W is the shorter tumor dimension and L is the longer tumor dimension. Individual treatments were administered when the tumor was 75–100 mg in size. The injection volume was 0.04 mL per gram of body weight, and the drug was administered intraperitoneally. Tumor mass and body weight were measured daily. Data are expressed as the mean±SEM of the tumor mass and are plotted until 50% of the animals in each treatment group have died or been sacrificed due to excessive tumor mass, tumor ulceration, or morbidity. For comparison of the activity of different agents, each administered at its respective maximum tolerated doses (MTD), the MTD is defined as that dose which reproducibly induces no more than 10% (1 out of each 10 animals per group) early toxic deaths not attributable to tumor burden, and which results in a mean maximum body weight loss (i.e., the group mean of the nadir in each individual mouse weight, regardless of the day on which it occurred) of 10–15%, followed by recovery in lost weight.
# (§3) A study was conducted to compare the antitumor activity of p(HPMA)-GFLG-C3-Sulf-Ama=Pt=DACH with that of carboplatin in the B16 melanoma model when each agent was administered as an IP injection daily for 5 days (qd×5). Both compounds were given at their respective maximum tolerated (equitoxic) doses on this regimen.
# (§4) The methods utilized in this study were identical to those utilized for the p(HPMA)-GFLG-C3-Sulf-Ama=Pt=DACH study of Example 38.
# B16 melanoma = experiment: Antitumor activity in the B16 melanoma model, multi-dose protocol; assay type: in vivo; conditions: s.c. B16F10 in C57BL/6 mice
# Protocol: as §1, §2, §3, §4
# [2] = Platinum release from PBS; assay type: physicochemical; conditions: 37° C.
# Protocol: The percent of small platinum species released over time was measured by dissolving about 30 mg of the polymer-platinum conjugate in 15 mL of phosphate buffered saline (10 mM phosphate, 123 mM Cl^−) and incubating the solution at 37° C. in a water bath. At indicated times, 2.0 mL aliquots were transferred to a centrifugal filter with a 3 kDa nominal molecular weight cutoff (Centricon YM-3 from Millipore) and spun until >1.5 mL of filtrate had accumulated. The timed filtrates and the original solution were analyzed for platinum by ICP-OES. The percent of small Pt species released was determined using the formula: ((ppm Pt in filtrate)/(ppm Pt in stock solution))×100.
# [3] = Dependence on pH of the isomer ratio of O,O′—Pt to N,O—Pt chelate (195Pt NMR of timed aliquots); assay type: physicochemical
# Protocol: The percent of O,O′- and N,O-chelate in timed aliquots of reactions mixtures were determined by removing enough of the reaction mixture (4–15 mL depending on concentration) to give greater than 100 mg of Pt-chelate if only ^195Pt NMR spectroscopy was to be done or about 200 mg if % Pt, and % H2O were also to be determined. The aliquots were purified by ultrafiltration using a Centricon Plus-20 centrifugal filter with a 5 kDa Biomax membrane from Millipore. The charged device was spun at the recommended RCF until less than 1 mL remained. The filtrate was discarded, the retentate was diluted with 15–18 mL water and the sample was centrifuged. This was repeated once more, and the retentate was lyophilized to give the sample for analysis.
# ^195Pt NMR spectra were obtained from a filtered 0.70 mL solution in 93/7 H2O/D2O in a 5 mm tube. Enough sample (80–120 mg) was used to give a solution that was >50 mM in platinum. The probe was tuned for each sample. A pulse width of 90 degrees, an acquisition time of 10 msec, a spectral window of 100 kHz and no delay was used. The transmitter was tuned to approximately midway between the O,O′—Pt and N,O—Pt chelates shifts (−1896 ppm for cis-diammine Pt and at −2450 for DACH—Pt). Between 50,000 and 1 million transients were typically required to obtain a sufficient (>35:1) s/n ratio for the cis-diammine-Pt and DACH=Pt species, respectively. The resulting FID was increasingly left-shifted until a flat baseline was obtained, a 100 Hz line broadening was applied, and a Fourier fill of 2048 was applied before processing. Integral regions were set and the spectrum's baseline was subjected to a spline fit using VNMR software v6.1. The sample was referenced externally to a 100 mM sample of K2PtCl4 in 95/5H2O/D2O and 100 mM HCl at −1624 ppm. This was also used to determine the 90 degree pulse width and T1.
# Four 50 mL Centrifuge tubes were each charged with 1.00 g of p(HPMA)-GFLG-Ama=Pt(NH3)2 (either 100% N,O-chelate) or a 92% O,O-chelate, 8% N,O-chelate mixture. These materials were dissolved in 27 mL Milli-Q water (approx a 4 wt % solution) and adjusted to the pH ranges desired using 1 M NaOH or 5% HClO4 as appropriate. The samples were then heated, with stirring, in a 38° C. water bath and maintained within their specified pH ranges. Timed aliquots were taken and frozen until a suitable time at which point the solutions were concentrated by centrifugal ultrafiltration (one spin down at 4800 rpm, 30° C.) and then transferred to an NMR tube. A small amount of D2O was added to each tube and the ^195Pt NMR spectra were recorded.
# [4] = Single-dose IV maximum tolerated dose study; assay type: in vivo; conditions: mice, highest dose with no drug-induced deaths
# Source text: For these studies, the MTD was defined as the highest dose evaluated in which no mouse deaths resulted from drug-induced toxicity.
# [5] = Example 38 study, IP qd×5 at MTD (polymer also days 15, 16, 17)
# [6] = Example 39 study, IP qd×5 at MTD
# [7] = pH 5.0–5.5, 38° C., 100 mM ClO4^−, 1 h
# [8] = pH 5.0–5.5, 38° C., 100 mM ClO4^−, 5 h
# [9] = pH 5.0–5.5, 38° C., 100 mM ClO4^−, 8 h
# [10] = pH 5.0–5.5, 38° C., 100 mM ClO4^−, 22 h
# [11] = pH 5.0–5.5, 38° C., 100 mM Cl^−, 1 h
# [12] = pH 5.0–5.5, 38° C., 100 mM Cl^−, 5 h
# [13] = pH 5.0–5.5, 38° C., 100 mM Cl^−, 8 h
# [14] = pH 5.0–5.5, 38° C., 100 mM Cl^−, 22 h
compound,measurement,setting,value
"N.N.O=C([O-])C1(C(=O)[O-])CCC1.[Pt+2] [Carboplatin, reference compound]",IC50,Bl6FI0 melanoma cells,2.4 µM
same,maximum tolerated dose,[1],60 mg/kg
same,"maximum tolerated dose, equivalent in Pt",[1],32 mg Pt/kg
same,inhibition of tumor growth,B16 melanoma; [5],modest inhibition of tumor growth
same,inhibition of tumor growth,B16 melanoma; [6],very little inhibition of tumor growth
"N.N.[Cl][Pt][Cl] [Cisplatin, cis-diamminedichloroplatinum(II), reference compound]",IC50,Bl6FI0 melanoma cells,0.5 µM
p(HPMA)-GFLG-Ama=Pt=DACH,maximum tolerated dose,[1],100 mg Pt/kg
same,inhibition of tumor growth,B16 melanoma; [5],tumor growth was substantially slowed and prolonged
"p(HPMA)-GFLG-Ama═Pt═(NH3)2, 45 kDa, O,O′—Pt",IC50,Bl6FI0 melanoma cells,1 µM
"p(HPMA)-GFLG-Ama═Pt═(NH3)2, 90 kDa, O,O′—Pt",IC50,Bl6FI0 melanoma cells,0.9 µM
"poly(HPMA)-GFLG-Ama=Pt(NH3)2, N,O—Pt chelate, >351 kDa [Example 14]",Pt release in PBS,[2]; 3 hours,0.68%
same,Pt release in PBS,[2]; 24 hours,2.28%
"poly(HPMA)-GFLG-Ama=Pt(NH3)2O,O′—Pt chelate [Example 3]","N,O— chelate","[3]; pH 3.0–3.5, 38° C., 1 h",0%
same,"O,O— chelate","[3]; pH 3.0–3.5, 38° C., 1 h",100%
same,"N,O— chelate","[3]; pH 3.0–3.5, 38° C., 5 h",3%
same,"O,O— chelate","[3]; pH 3.0–3.5, 38° C., 5 h",97%
same,"N,O— chelate","[3]; pH 3.0–3.5, 38° C., 20 h",2%
same,"O,O— chelate","[3]; pH 3.0–3.5, 38° C., 20 h",98%
same,"N,O— chelate","[3]; pH 4.0–4.5, 38° C., 1 h",25%
same,"O,O— chelate","[3]; pH 4.0–4.5, 38° C., 1 h",75%
same,"N,O— chelate","[3]; pH 4.0–4.5, 38° C., 5 h",21%
same,"O,O— chelate","[3]; pH 4.0–4.5, 38° C., 5 h",79%
same,"N,O— chelate","[3]; pH 4.0–4.5, 38° C., 20 h",28%
same,"O,O— chelate","[3]; pH 4.0–4.5, 38° C., 20 h",72%
same,"N,O— chelate",[3]; [7],31%
same,"O,O— chelate",[3]; [7],69%
same,"N,O— chelate",[3]; [8],56%
same,"O,O— chelate",[3]; [8],44%
same,"N,O— chelate",[3]; [9],67%
same,"O,O— chelate",[3]; [9],33%
same,"N,O— chelate",[3]; [10],60%
same,"O,O— chelate",[3]; [10],40%
same,"N,O— chelate",[3]; [11],31%
same,"O,O— chelate",[3]; [11],69%
same,"N,O— chelate",[3]; [12],54%
same,"O,O— chelate",[3]; [12],46%
same,"N,O— chelate",[3]; [13],68%
same,"O,O— chelate",[3]; [13],32%
same,"N,O— chelate",[3]; [14],68%
same,"O,O— chelate",[3]; [14],32%
same,"N,O— chelate","[3]; pH 5.0–5.5, 38° C., 1 h",33%
same,"O,O— chelate","[3]; pH 5.0–5.5, 38° C., 1 h",67%
same,"N,O— chelate","[3]; pH 5.0–5.5, 38° C., 5 h",49%
same,"O,O— chelate","[3]; pH 5.0–5.5, 38° C., 5 h",51%
same,"N,O— chelate","[3]; pH 5.0–5.5, 38° C., 20 h",65%
same,"O,O— chelate","[3]; pH 5.0–5.5, 38° C., 20 h",35%
same,"N,O— chelate","[3]; pH 6.0–6.5, 38° C., 1 h",43%
same,"O,O— chelate","[3]; pH 6.0–6.5, 38° C., 1 h",57%
same,"N,O— chelate","[3]; pH 6.0–6.5, 38° C., 5 h",66%
same,"O,O— chelate","[3]; pH 6.0–6.5, 38° C., 5 h",34%
same,"N,O— chelate","[3]; pH 6.0–6.5, 38° C., 20 h",91%
same,"O,O— chelate","[3]; pH 6.0–6.5, 38° C., 20 h",9%
same,IC50,Bl6FI0 melanoma cells,0.8 to 1.1 µM
same,maximum tolerated dose (MTD),[4],80–100 mg PVkg
"poly(HPMA)-GFLG-Ama=Pt=DACH, N,O—Pt chelate [Example 6]",IC50,Bl6FI0 melanoma cells,< 4 µM
"poly(HPMA)-GFLG-C3-Sulf-Ama=Pt(NH3)2 N,O-chelate [Example 28]",Pt release in PBS,[2]; 3 hours,3.02%
same,Pt release in PBS,[2]; 24 hours,5.44%
"poly(HPMA)-GFLG-NH(CH2)3SO2-Ama=Pt=DACH N,O-chelate [Example 29]",Pt release in PBS,[2]; 3 hours,2.12%
same,Pt release in PBS,[2]; 24 hours,4.54%
same,maximum tolerated dose,[1],75 mg Pt/kg
same,inhibition of tumor growth,B16 melanoma; [6],more marked inhibition in tumor growth
"poly(HPMA)-GG-Ama=Pt(NH3)2 N,O Chelate [Example 17]",Pt release in PBS,[2]; 3 hours,1.4%
same,Pt release in PBS,[2]; 24 hours,4.6%
"poly(HPMA)-GG-Ama=Pt=DACH N,O-Chelate [Example 18]",Pt release in PBS,[2]; 3 hours,1.3%
same,Pt release in PBS,[2]; 24 hours,5.5%
"poly(HPMA)-GG-NH(CH2)3SO2Ama=Pt=DACH, Approx. 22 kDa [Example 25]",Pt release in PBS,[2]; 3 hours,1.0%
same,Pt release in PBS,[2]; 24 hours,1.93%
"poly(HPMA)-GGGG-Ama=Pt=1R,2R-DACH N,O-Chelate [Example 21]",Pt release in PBS,[2]; 3 hours,0.972%
same,Pt release in PBS,[2]; 24 hours,3.173%
"poly(HPMA)=GFLG-Ama=Pt=DACH, O,O′—Pt chelate [Example 5]",Pt release in PBS,[2]; 3 hours,6.0%
same,Pt release in PBS,[2]; 24 hours,10.9%
same,IC50,Bl6FI0 melanoma cells,1 µM
